# Reference: the RNAGym collection of RNA variant scans (doi:10.7554/elife.80360)
# B1: Hairpin Ribozyme (parent)
# chain: GUCCUCUUUCACGUGCGCGUGAAAGAGAGAAGUGAACCAGAGAAACACACGUUGUGGUAUAUUACCUGGUA
# Variants of: B1
# Assay: self-cleavage, relative activity (ratio to wild type); higher = more cleavage; co-transcriptional
row,Variant,self-cleavage
1,GUCCUCUUUCACGUGCGCGUAAAAGAGAGAAGUGAACCAGAGAAACACACGUUUUGGUAUAUUACCUGGUA,0.372
2,GUCCUCUUUCACGUGCGCGUAAAAGAGAGAAGUAAACCAGAGAAACACACGUUGUGGUAUAUUACCUGGUA,0.968
3,GUCCUCUUUCACGUGCGCGUCAAAGAGAGAAGUGAACCAGAGAAACACACGUUGUGGUAUAGUACCUGGUA,0.216
4,GUCCUCUUUCACGUGCGCGUCAAAGAGAGAACUGAACCAGAGAAACACACGUUGUGGUAUAUUACCUGGUA,0.175
5,GUCCUCUUUCACGUGCGCGUCAAAGAGAGAAGUGAACCAGAGAAACACACGUUGUGGUAUAUUAACUGGUA,0.777
6,GUCCUCUUUCACGUGCGCGUCAAAGAGAGAAGUGAACCAGAGAAACACACAUUGUGGUAUAUUACCUGGUA,0.914
7,GUCCUCUUUCACGUGCGCGUCAAAGAGAGAAGUGAACCAGAGAAACACACGUUGUGGUCUAUUACCUGGUA,0.238
8,GUCCUCUUUCACGUGCGCGUCAAAGAGAGAAGUGAACCAGAGAAACACACGUUGUGGUAUAUUCCCUGGUA,0.154
9,GUCCUCUUUCACGUGCGCGUCAAAGAGAGAAGUGAACCAGAGAAACACACGUUGUGGUAUAUUUCCUGGUA,0.0998
10,GUCCUCUUUCACGUGCGCGUCAAAGAGAGAAGUGAUCCAGAGAAACACACGUUGUGGUAUAUUACCUGGUA,0.566
11,GUCCUCUUUCACGUGCGCGUCAAAGAGAGAAGUGACCCAGAGAAACACACGUUGUGGUAUAUUACCUGGUA,0.534
12,GUCCUCUUUCACGUGCGCGUCAAAGAGAGAAGUGAACCAGAGAAACACACGUCGUGGUAUAUUACCUGGUA,0.953
13,GUCCUCUUUCACGUGCGCGUCAAAGAGAGAAGUGAACCAGAGAAAAACACGUUGUGGUAUAUUACCUGGUA,0.0884
14,GUCCUCUUUCACGUGCGCGUCAAAGAGAGAAGUGAACCAGAGAAAUACACGUUGUGGUAUAUUACCUGGUA,0.116
15,GUCCUCUUUCACGUGCGCGUAAAAGAGAGAAGUGAACCAGAGAAACACACGUCGUGGUAUAUUACCUGGUA,0.739
16,GUCCUCUUUCACGUGCGCGUAAAAGAGAGAAGUGAACCAGAGAAACACACGUAGUGGUAUAUUACCUGGUA,0.824
17,GUCCUCUUUCACGUGCGCGUCAAAGAGAGAAGUGAACCAGAGAAACACACGUUGUGGUAUCUUACCUGGUA,0.151
18,GUCCUCUUUCACGUGCGCGUCAAAGAGAGAAGUGAACCAGAGAACCACACGUUGUGGUAUAUUACCUGGUA,0.276
19,GUCCUCUUUCACGUGCGCGUCAAAGAGAGAAGUGAACCAGAGAAGCACACGUUGUGGUAUAUUACCUGGUA,0.192

row,Variant,self-cleavage
1,GUCCUCUUUCACGUGCGCGUCAAAGAGAGAAGUGAACCAGAGAAUCACACGUUGUGGUAUAUUACCUGGUA,0.154
2,GUCCUCUUUCACGUGCGCGUCAAAGAGAGAAGUGAACAAGAGAAACACACGUUGUGGUAUAUUACCUGGUA,0.18
3,GUCCUCUUUCACGUGCGCGUCAAAGAGAGAAGUGAACCAGAGAAACACACGUUGUGGUAUAUUACCUCGUA,0.155
4,GUCCUCUUUCACGUGCGCGUCAAAGAGAGAAGUGAACCAGAGAAACACACGUUGUGGUAUAUUACCUAGUA,0.321
5,GUCCUCUUUCACGUGCGCGUAAAAGAGAGAAGUGAACCAGAGAAACACACGUUGUGGUACAUUACCUGGUA,0.956
6,GUCCUCUUUCACGUGCGCGUCAAAGAGAGAGGUGAACCAGAGAAACACACGUUGUGGUAUAUUACCUGGUA,0.275
7,GUCCUCUUUCACGUGCGCGUCAAAGAGAGAAGUGAACCAGAGAAACACACGUUGUGGUAUAUUACCUGGUG,0.818
8,GUCCUCUUUCACGUGCGCGUCAAAGAGAGAAGUGAACCAGAGAAACACACGUUGUGGUAUAUUACCUGCUA,0.265
9,GUCCUCUUUCACGUGCGCGUCAAAGAGAGAAGUUAACCAGAGAAACACACGUUGUGGUAUAUUACCUGGUA,1.12
10,GUCCUCUUUCACGUGCGCGUCAAAGAGAGAAGUCAACCAGAGAAACACACGUUGUGGUAUAUUACCUGGUA,0.992
11,GUCCUCUUUCACGUGCGCGUCAAAGAGAGAAGUGAACCAGAGAAACACACGUUGUGAUAUAUUACCUGGUA,0.16
12,GUCCUCUUUCACGUGCGCGUCAAAGAGAGAAGUGAACCAUAGAAACACACGUUGUGGUAUAUUACCUGGUA,0.17
13,GUCCUCUUUCACGUGCGCGUCAAAGAGAGAAGUGAACCACAGAAACACACGUUGUGGUAUAUUACCUGGUA,0.0941
14,GUCCUCUUUCACGUGCGCGUAAAAGAGAGAAGUGAACCAGAGAAACACACGUUGUGGUAUAUAACCUGGUA,0.14
15,GUCCUCUUUCACGUGCGCGUCAAAGAGAGAAGUGAACCAGAUAAACACACGUUGUGGUAUAUUACCUGGUA,0.379
16,GUCCUCUUUCACGUGCGCGUCAAAGAGAGAAGUGAACCUGAGAAACACACGUUGUGGUAUAUUACCUGGUA,0.46
17,GUCCUCUUUCACGUGCGCGUCAAAGAGAGAAGUGAACCGGAGAAACACACGUUGUGGUAUAUUACCUGGUA,0.225
18,GUCCUCUUUCACGUGCGCGUCACAGAGAGAAGUGAACCAGAGAAACACACGUUGUGGUAUAUUACCUGGUA,0.422
19,GUCCUCUUUCACGUGCGCGUCAAAGAGAGAAGUGAACCAGAGAUACACACGUUGUGGUAUAUUACCUGGUA,0.0331
